Laboratory results from publication PMC8354592.

Target: GST-GNL1 (UniProt P36915 1-607)
Assay: EMSA

Sequence of GST-GNL1 (P36915 whole entry): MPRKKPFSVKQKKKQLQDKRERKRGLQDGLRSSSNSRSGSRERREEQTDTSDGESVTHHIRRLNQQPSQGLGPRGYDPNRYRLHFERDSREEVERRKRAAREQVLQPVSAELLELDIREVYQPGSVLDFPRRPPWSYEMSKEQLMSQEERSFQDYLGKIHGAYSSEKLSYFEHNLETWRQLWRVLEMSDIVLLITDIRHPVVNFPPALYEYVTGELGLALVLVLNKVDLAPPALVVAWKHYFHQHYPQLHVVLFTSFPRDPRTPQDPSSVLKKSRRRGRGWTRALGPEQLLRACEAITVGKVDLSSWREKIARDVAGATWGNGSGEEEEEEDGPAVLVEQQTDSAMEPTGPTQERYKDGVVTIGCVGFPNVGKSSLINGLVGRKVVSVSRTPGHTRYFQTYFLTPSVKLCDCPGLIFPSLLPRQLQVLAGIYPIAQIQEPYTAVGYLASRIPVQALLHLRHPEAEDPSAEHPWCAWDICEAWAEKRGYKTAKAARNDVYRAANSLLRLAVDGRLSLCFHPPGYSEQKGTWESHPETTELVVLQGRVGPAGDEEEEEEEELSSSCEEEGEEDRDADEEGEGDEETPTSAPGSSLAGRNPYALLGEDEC

B1: PRKN G/A mutant (ssRNA)
RNA: GGAUUCCUAGGGCCGAGCGCGAGAGCGAGAAGGCCUGAAGGAUUUAACCCAGAAGAGCCGCUGGUGAGAGGCGCGGCUGGCGCCGCUGCGCGC
Q: With B1 as the binder, how does the Kd read?
A: 7.34 µM
